Biological target: 4-1BB-Fc (human, UniProt Q07011)
Assay: BLI, 24C, avidity

4-1BB-Fc, sequence (Q07011 24-186): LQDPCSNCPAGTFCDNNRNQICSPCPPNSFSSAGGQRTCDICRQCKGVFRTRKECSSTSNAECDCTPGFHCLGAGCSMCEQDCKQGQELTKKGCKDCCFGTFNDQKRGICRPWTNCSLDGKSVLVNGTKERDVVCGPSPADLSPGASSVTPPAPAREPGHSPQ

Kd: 0.02 nM
B1: D2 (4-1BBL trimer-Fc) (protein)
chain: KEITNALETWGALGQDINLDIPSFQMSDDIDDIKWEKTSDKKKIAQFRKEKETFKEKDTYKLFKNGTLKIKHLKTDDQDIYKVSIYDTKGKNVLEKIFDLKIQERVSKPKISWTCINTTLTCEVMNGTDPELNLYQDGKHLKLSQRVITHKWTTSLSAKFKCTAGNKVSKESSVEPVSCPEKGLDIYLIIGICGGGSLLMVFVALLVFYITKRKKQRSRRNDEELETRAHRVATEERGRKPHQIPASTPQNPATSQHPPPPPGHRSQAPSHRPPPPGHRVQHQPQKRPPAPSGTQVHQQKGPPLPRPRVQPKPPHGAAENSLSPSSN
